Source: PMC7536116
Read-outs that look alike come from different tables or passages of the source.

Key:
Assay in all cases: GFET
TNF-alpha [1] = target: T1, TNF-alpha (human, UniProt P01375 77-233)
TNF-alpha [2] = target: T1, TNF-alpha; remark: listed apart in the source
TNF-alpha [3] = target: T1, TNF-alpha; remark: listed apart in the source

T1 sequence (P01375 77-233): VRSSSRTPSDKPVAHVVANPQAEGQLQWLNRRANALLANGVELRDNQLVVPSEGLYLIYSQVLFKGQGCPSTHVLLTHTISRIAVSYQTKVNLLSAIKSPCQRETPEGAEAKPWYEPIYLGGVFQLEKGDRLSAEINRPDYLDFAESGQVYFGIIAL

Binder: TGGTGGATGGCGCAGTCGGCGACAA (ssDNA, 5'-NH2 (amine, coupled to PASE on graphene)) [VR11 aptamer]
- Kd (TNF-alpha [1]): 28.4 nM
- Kd (TNF-alpha [2]): 27.4 nM
- Kd (TNF-alpha [3]): 28.4 nM
